In patent US20250163127A1 (published 2025):

T1: human TIGIT (human, UniProt Q495A1)
T1 sequence: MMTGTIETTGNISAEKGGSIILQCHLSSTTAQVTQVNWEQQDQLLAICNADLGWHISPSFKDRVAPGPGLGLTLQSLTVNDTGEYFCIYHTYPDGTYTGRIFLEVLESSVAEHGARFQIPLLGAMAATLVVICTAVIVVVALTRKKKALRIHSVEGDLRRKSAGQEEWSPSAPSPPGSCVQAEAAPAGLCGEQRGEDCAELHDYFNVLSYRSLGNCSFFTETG

T2: CD80 (human)
T2 chain: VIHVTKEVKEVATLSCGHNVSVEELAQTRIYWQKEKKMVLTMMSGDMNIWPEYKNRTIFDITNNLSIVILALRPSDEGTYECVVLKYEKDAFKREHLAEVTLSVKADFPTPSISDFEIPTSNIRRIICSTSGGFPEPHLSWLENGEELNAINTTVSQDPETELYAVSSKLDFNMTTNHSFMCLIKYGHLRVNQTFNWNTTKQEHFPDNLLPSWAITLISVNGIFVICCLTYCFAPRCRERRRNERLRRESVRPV

T3: human CD86 (human)
T3 chain: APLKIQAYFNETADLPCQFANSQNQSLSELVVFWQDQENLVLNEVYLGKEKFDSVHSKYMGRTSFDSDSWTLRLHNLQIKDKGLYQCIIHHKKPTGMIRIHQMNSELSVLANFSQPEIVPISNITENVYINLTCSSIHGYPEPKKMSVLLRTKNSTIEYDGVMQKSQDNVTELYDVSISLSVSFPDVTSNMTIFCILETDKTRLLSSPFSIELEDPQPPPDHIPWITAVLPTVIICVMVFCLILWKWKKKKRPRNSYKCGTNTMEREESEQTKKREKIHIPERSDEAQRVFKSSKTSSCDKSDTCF

T4: TIGIT (human, UniProt Q495A1)
T4 sequence: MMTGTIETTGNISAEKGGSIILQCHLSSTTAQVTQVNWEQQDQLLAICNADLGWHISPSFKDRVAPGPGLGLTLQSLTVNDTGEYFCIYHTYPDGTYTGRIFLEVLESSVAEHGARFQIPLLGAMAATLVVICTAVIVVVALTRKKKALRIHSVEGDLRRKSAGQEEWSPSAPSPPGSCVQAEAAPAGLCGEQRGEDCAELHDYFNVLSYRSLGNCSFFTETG

B1: CD155 665-CTLA-4 3037-Fc (Fc fusion)
chain: WPPPGTGDVVVQAPTQVSGFLGDSVTLPCYLQVPNMEVTHVSQLTWARHGESGSMAVFHQTQGPWYAESKRLEFVAARLGAELRNASLRVFGLRAEDEGNYTCQFVTFPQRSRSVDIWLRVLGGGGSGGGGSGGGGSKAMHVAQPAVVFASSHGIASFVCEYASPWKATEVRVTVLRQADSQVTEVCAATYMTGNELTFLDDSICTGTSSGNQVNLTIQGLRAMDTGLYICKVEQMYPPPYLLGIGNGTQIYVIDPEPCPDSDGSGGGGSEPKSSDKTHTCPPCPAPEAEGAPSVFLFPPKPKDTLMISRTPEVTCVVVDVSHEDPEVKFNWYVDGVEVHNAKTKPREEQYNSTYRVVSVLTVLHQDWLNGKEYKCKVSNKALPAPIEKTISKAKGQPREPQVYTLPPSRDELTKNQVSLTCLVKGFYPSDIAVEWESNGQPENNYKTTPPVLDSDGSFFLYSKLTVDKSRWQQGNVFSCSVMHEALHNHYTQKSLSLSPG
B2: CD155 665-CTLA-4 3037-Fc (Fc fusion)
chain: WPPPGTGDVVVQAPTQVSGFLGDSVTLPCYLQVPNMEVTHVSQLTWARHGESGSMAVFHQTQGPWYAESKRLEFVAARLGAELRNASLRVFGLRAEDEGNYTCQFVTFPQRSRSVDIWLRVLGGGGSGGGGSGGGGSKAMHVAQPAVVFASSHGIASFVCEYASPWKATEVRVTVLRQADSQVTEVCAATYMTGNELTFLDDSICTGTSSGNQVNLTIQGLRAMDTGLYICKVEQMYPPPYLLGIGNGTQIYVIDPEPCPDSDGSGGGGSEPKSSDKTHTCPPCPAPEAEGAPSVFLFPPKPKDTLMISRTPEVTCVVVDVSHEDPEVKFNWYVDGVEVHNAKTKPREEQYNSTYRVVSVLTVLHQDWLNGKEYKCKVSNKALPAPIEKTISKAKGQPREPQVYTLPPSRDELTKNQVSLTCLVKGFYPSDIAVEWESNGQPENNYKTTPPVLDSDGSFFLYSKLTVDKSRWQQGNVFSCSVMHEALHNHYTQKSLSLSPG
B3: CD155 665-CD58 3650-Fc (Fc fusion)
chain: WPPPGTGDVVVQAPTQVSGFLGDSVTLPCYLQVPNMEVTHVSQLTWARHGESGSMAVFHQTQGPWYAESKRLEFVAARLGAELRNASLRVFGLRAEDEGNYTCQFVTFPQRSRSVDIWLRVLGGGGSGGGGSGGGGSSQQIYGVVYGNVTFHVPSNVPLKEVLWKKQKDKVAELENSEFRAFSSFKNRVYLDTVSGSLTIYNLTSSDEDEYEMESPNITDTMKFFLYVLESGSGGGGSEPKSSDKTHTCPPCPAPEAEGAPSVFLFPPKPKDTLMISRTPEVTCVVVDVSHEDPEVKFNWYVDGVEVHNAKTKPREEQYNSTYRVVSVLTVLHQDWLNGKEYKCKVSNKALPAPIEKTISKAKGQPREPQVYTLPPSRDELTKNQVSLTCLVKGFYPSDIAVEWESNGQPENNYKTTPPVLDSDGSFFLYSKLTVDKSRWQQGNVFSCSVMHEALHNHYTQKSLSLSPG
B4: CD155 665-CD58 3650-Fc (Fc fusion)
chain: WPPPGTGDVVVQAPTQVSGFLGDSVTLPCYLQVPNMEVTHVSQLTWARHGESGSMAVFHQTQGPWYAESKRLEFVAARLGAELRNASLRVFGLRAEDEGNYTCQFVTFPQRSRSVDIWLRVLGGGGSGGGGSGGGGSSQQIYGVVYGNVTFHVPSNVPLKEVLWKKQKDKVAELENSEFRAFSSFKNRVYLDTVSGSLTIYNLTSSDEDEYEMESPNITDTMKFFLYVLESGSGGGGSEPKSSDKTHTCPPCPAPEAEGAPSVFLFPPKPKDTLMISRTPEVTCVVVDVSHEDPEVKFNWYVDGVEVHNAKTKPREEQYNSTYRVVSVLTVLHQDWLNGKEYKCKVSNKALPAPIEKTISKAKGQPREPQVYTLPPSRDELTKNQVSLTCLVKGFYPSDIAVEWESNGQPENNYKTTPPVLDSDGSFFLYSKLTVDKSRWQQGNVFSCSVMHEALHNHYTQKSLSLSPG
B5: CD58 3650-CD155 665-Fc (Fc fusion)
chain: SQQIYGVVYGNVTFHVPSNVPLKEVLWKKQKDKVAELENSEFRAFSSFKNRVYLDTVSGSLTIYNLTSSDEDEYEMESPNITDTMKFFLYVLESGGGGSGGGGSGGGGSWPPPGTGDVVVQAPTQVSGFLGDSVTLPCYLQVPNMEVTHVSQLTWARHGESGSMAVFHQTQGPWYAESKRLEFVAARLGAELRNASLRVFGLRAEDEGNYTCQFVTFPQRSRSVDIWLRVLGSGGGGSEPKSSDKTHTCPPCPAPEAEGAPSVFLFPPKPKDTLMISRTPEVTCVVVDVSHEDPEVKFNWYVDGVEVHNAKTKPREEQYNSTYRVVSVLTVLHQDWLNGKEYKCKVSNKALPAPIEKTISKAKGQPREPQVYTLPPSRDELTKNQVSLTCLVKGFYPSDIAVEWESNGQPENNYKTTPPVLDSDGSFFLYSKLTVDKSRWQQGNVFSCSVMHEALHNHYTQKSLSLSPG
B6: CD58 3650-CD155 665-Fc (Fc fusion)
chain: SQQIYGVVYGNVTFHVPSNVPLKEVLWKKQKDKVAELENSEFRAFSSFKNRVYLDTVSGSLTIYNLTSSDEDEYEMESPNITDTMKFFLYVLESGGGGSGGGGSGGGGSWPPPGTGDVVVQAPTQVSGFLGDSVTLPCYLQVPNMEVTHVSQLTWARHGESGSMAVFHQTQGPWYAESKRLEFVAARLGAELRNASLRVFGLRAEDEGNYTCQFVTFPQRSRSVDIWLRVLGSGGGGSEPKSSDKTHTCPPCPAPEAEGAPSVFLFPPKPKDTLMISRTPEVTCVVVDVSHEDPEVKFNWYVDGVEVHNAKTKPREEQYNSTYRVVSVLTVLHQDWLNGKEYKCKVSNKALPAPIEKTISKAKGQPREPQVYTLPPSRDELTKNQVSLTCLVKGFYPSDIAVEWESNGQPENNYKTTPPVLDSDGSFFLYSKLTVDKSRWQQGNVFSCSVMHEALHNHYTQKSLSLSPG
B7: PD-L1 303-CD155 665-CTLA-4 3037-Fc (Fc fusion)
chain: FTVTVPKDLYVVEYGSNMTIECKFPVEKQLDLAALIVYWEMEGKDIIQFVHGEEDQKAQHSSYRQRARLLKDQLSLGNAALQITDVKLQDAGVYRCMISYGGGADYKRITVKVNAGGGGSGGGGSGGGGSWPPPGTGDVVVQAPTQVSGFLGDSVTLPCYLQVPNMEVTHVSQLTWARHGESGSMAVFHQTQGPWYAESKRLEFVAARLGAELRNASLRVFGLRAEDEGNYTCQFVTFPQRSRSVDIWLRVLGGGGSGGGGSGGGGSKAMHVAQPAVVFASSHGIASFVCEYASPWKATEVRVTVLRQADSQVTEVCAATYMTGNELTFLDDSICTGTSSGNQVNLTIQGLRAMDTGLYICKVEQMYPPPYLLGIGNGTQIYVIDPEPCPDSDGSGGGGSEPKSSDKTHTCPPCPAPEAEGAPSVFLFPPKPKDTLMISRTPEVTCVVVDVSHEDPEVKFNWYVDGVEVHNAKTKPREEQYNSTYRVVSVLTVLHQDWLNGKEYKCKVSNKALPAPIEKTISKAKGQPREPQVYTLPPSRDELTKNQVSLTCLVKGFYPSDIAVEWESNGQPENNYKTTPPVLDSDGSFFLYSKLTVDKSRWQQGNVFSCSVMHEALHNHYTQKSLSLSPG
B8: CTLA-4 3060-CD155 665-Fc (Fc fusion)
chain: KAMHVAQPAVVFASSHGIASFVCEYASPWKATEVRVTVLRQADSQVTEVCAATYMTGNELTFLDDSICTGTSSGNQVNLTIQGLRAMDTGLYICKVEQMYPPPYLLGIGNGTQIYVIDPEPCPDSDGGGGSGGGGSGGGGSWPPPGTGDVVVQAPTQVSGFLGDSVTLPCYLQVPNMEVTHVSQLTWARHGESGSMAVFHQTQGPWYAESKRLEFVAARLGAELRNASLRVFGLRAEDEGNYTCQFVTFPQRSRSVDIWLRVLGSGGGGSEPKSSDKTHTCPPCPAPEAEGAPSVFLFPPKPKDTLMISRTPEVTCVVVDVSHEDPEVKFNWYVDGVEVHNAKTKPREEQYNSTYRVVSVLTVLHQDWLNGKEYKCKVSNKALPAPIEKTISKAKGQPREPQVYTLPPSRDELTKNQVSLTCLVKGFYPSDIAVEWESNGQPENNYKTTPPVLDSDGSFFLYSKLTVDKSRWQQGNVFSCSVMHEALHNHYTQKSLSLSPG
B9: CTLA-4 3060-CD155 665-Fc (Fc fusion)
chain: KAMHVAQPAVVFASSHGIASFVCEYASPWKATEVRVTVLRQADSQVTEVCAATYMTGNELTFLDDSICTGTSSGNQVNLTIQGLRAMDTGLYICKVEQMYPPPYLLGIGNGTQIYVIDPEPCPDSDGGGGSGGGGSGGGGSWPPPGTGDVVVQAPTQVSGFLGDSVTLPCYLQVPNMEVTHVSQLTWARHGESGSMAVFHQTQGPWYAESKRLEFVAARLGAELRNASLRVFGLRAEDEGNYTCQFVTFPQRSRSVDIWLRVLGSGGGGSEPKSSDKTHTCPPCPAPEAEGAPSVFLFPPKPKDTLMISRTPEVTCVVVDVSHEDPEVKFNWYVDGVEVHNAKTKPREEQYNSTYRVVSVLTVLHQDWLNGKEYKCKVSNKALPAPIEKTISKAKGQPREPQVYTLPPSRDELTKNQVSLTCLVKGFYPSDIAVEWESNGQPENNYKTTPPVLDSDGSFFLYSKLTVDKSRWQQGNVFSCSVMHEALHNHYTQKSLSLSPG

How the values were obtained:
[1] = target: T1, human TIGIT; assay: flow cytometry, Jurkat/IL-2/TIGIT cells
[2] = target: T2, CD80; assay: flow cytometry, CHO-CD80 cells
[3] = target: T3, human CD86; assay: cell-based or functional assay
[4] = target: T4, TIGIT; assay: cell-based or functional assay
[5] = target: CD2 (Homo sapiens (Human), UniProt P06729); assay: flow cytometry, CHO-CD2 cells
[6] = target: CD2 (human, UniProt P06729); assay: cell-based or functional assay
[7] = target: PD-1 (human, UniProt Q15116); assay: cell-based or functional assay

Row | Binder | EC50 [1] [nM] | 100 nM IFN-gamma (pg/mL), SEB assay [3] [pg/mL] | 100 nM IFN-gamma (pg/mL), SEB assay [4] [pg/mL] | other results
1 | B1 | 0.6 | – | – | EC50 [2]: 4.1 nM
2 | B2 | – | 4310 | 4310 | –
3 | B3 | 0.733 | – | – | EC50 [5]: 0.845 nM
4 | B4 | – | – | 5850 | 100 nM IFN-gamma (pg/mL), SEB assay [6]: 5850 pg/mL
5 | B5 | 1 | – | – | EC50 [5]: 0.935 nM
6 | B6 | – | – | 6490 | 100 nM IFN-gamma (pg/mL), SEB assay [6]: 6490 pg/mL
7 | B7 | – | 7350 | 7350 | 100 nM IFN-gamma (pg/mL), SEB assay [7]: 7350 pg/mL
8 | B8 | 3.4 | – | – | EC50 [2]: 1.8 nM
9 | B9 | – | 1900 | 1900 | –
